We go through one molecule from patent publication US20020123042A1 (CHIRON, published 2002).

This test addresses T1, full-length HA-epitope tagged huBUB1 (plasmid p396-1) (human, UniProt O43683 1-1085).
T1 construct: In vitro translated; precipitated with anti-HA monoclonal antibody and Protein G beads; also called HA-huBUB1; HA-BUB1; not shown: triple HA tag
In words: anti-HA co-immunoprecipitation of in vitro translated proteins, BUB3 present. The text has this: ³⁵S-methionine-labeled proteins and polypeptides were then produced from these plasmids by coupled in vitro transcription/translation reactions (IVT), as described above. IVT reactions were immunoprecipitated (IP), using either anti-FLAG agarose beads (Kodak IBI) or anti-HA monoclonal antibody combined with Protein G beads (BMB). Beads were extensively washed as previously described to ensure the removal of non-specifically-associated proteins, including relatively stringent washes in 2 M NaCl buffer. Bound proteins were released from beads by heating samples in SDS-sample buffer and were analyzed on 10-20% SDS-PAGE gels. Aliquots of initial ³⁵S-labeled translation reactions were analyzed as well.

B1: wild-type huBUB1 (full-length, plasmid p385-1) (enzyme)
chain: MDTPENVLQMLEAHMQSYKGNDPLGEWERYIQWVEENFPENKEYLITLLEHLMKEFLDKKKYHNDPRFISYCLKFAEYNSDLHQFFEFLYNHGIGTLSSPLYIAWAGHLEAQGELQHASAVLQRGIQNQAEPREFLQQQYRLFQTRLTETHLPAQARTSEPLHNVQVLNQMITSKSNPGNNMACISKNQGSELSGVISSACDKESNMERRVITISKSEYSVHSSLASKVDVEQVVMYCKEKLIRGESEFSFEELRAQKYNQRRKHEQWVNEDRHYMKRKEANAFEEQLLKQKMDELHKKLHQVVETSHEDLPASQERSEVNPARMGPSVGSQQELRAPCLPVTYQQTPVNMEKNPREAPPVVPPLANAISAALVSPATSQSIAPPVPLKAQTVTDSMFAVASKDAGCVNKSTHEFKPQSGAEIKEGCETHKVANTSSFHTTPNTSLGMVQATPSKVQPSPTVHTKEALGFIMNMFQAPTLPDISDDKDEWQSLDQNEDAFEAQFQKNVRSSGAWGVNKIISSLSSAFHVFEDGNKENYGLPQPKNKPTGARTFGERSVSRLPSKPKEEVPHAEEFLDDSTVWGIRCNKTLAPSPKSPGDFTSAAQLASTPFHKLPVESVHILEDKENVVAKQCTQATLDSCEENMVVPSRDGKFSPIQEKSPKQALSSHMYSASLLRLSQPAAGGVLTCEAELGVEACRLTDTDAAIAEDPPDAIAGLQAEWMQMSSLGTVDAPNFIVGNPWDDKLIFKLLSGLSKPVSSYPNTFEWQCKLPAIKPKTEFQLGSKLVYVHHLLGEGAFAQVYEATQGDLNDAKNKQKFVLKVQKPANPWEFYIGTQLMERLKPSMQHMFMKFYSAHLFQNGSVLVGELYSYGTLLNAINLYKNTPEKVMPQGLVISFAMRMLYMIEQVHDCEIIHGDIKPDNFILGNGFLEQDDEDDLSAGLALIDLGQSIDMKLFPKGTIFTAKCETSGFQCVEMLSNKPWNYQIDYFGVAATVYCMLFGTYMKVKNEGGECKPEGLFRRLPHLDMWNEFFHVMLNIPDCHHLPSLDLLRQKLKKVFQQHYTNKIRALRNRLIVLLLECKRSRK
notes: Full-length, untagged protein made in vitro (T7 TnT kit), 35S-methionine-labeled or unlabeled; also called full-length huBUB1; untagged huBUB1
As for B1, the binding result was “no binding”.
